{
  "source": "IntAct's records for PubMed 23858060",
  "parents": {"B1": {"name": "Galactose/lactose metabolism regulatory protein GAL80 (Saccharomyces cerevisiae), P04387 (parent)", "chain": "MDYNKRSSVSTVPNAAPIRVGFVGLNAAKGWAIKTHYPAILQLSSQFQITALYSPKIETSIATIQRLKLSNATAFPTLESFASSSTIDMIVIAIQVASHYEVVMPLLEFSKNNPNLKYLFVEWALACSLDQAESIYKAAAERGVQTIISLQGRKSPYILRAKELISQGYIGDINSIEIAGNGGWYGYERPVKSPKYIYEIGNGVDLVTTTFGHTIDILQYMTSSYFSRINAMVFNNIPEQELIDERGNRLGQRVPKTVPDHLLFQGTLLNGNVPVSCSFKGGKPTKKFTKNLVIDIHGTKGDLKLEGDAGFAEISNLVLYYSGTRANDFPLANGQQAPLDPGYDAGKEIMEVYHLRNYNAIVGNIHRLYQSISDFHFNTKKIPELPSQFVMQGFDFEGFPTLMDALILHRLIESVYKSNMMGSTLNVSNISHYSL", "partner": "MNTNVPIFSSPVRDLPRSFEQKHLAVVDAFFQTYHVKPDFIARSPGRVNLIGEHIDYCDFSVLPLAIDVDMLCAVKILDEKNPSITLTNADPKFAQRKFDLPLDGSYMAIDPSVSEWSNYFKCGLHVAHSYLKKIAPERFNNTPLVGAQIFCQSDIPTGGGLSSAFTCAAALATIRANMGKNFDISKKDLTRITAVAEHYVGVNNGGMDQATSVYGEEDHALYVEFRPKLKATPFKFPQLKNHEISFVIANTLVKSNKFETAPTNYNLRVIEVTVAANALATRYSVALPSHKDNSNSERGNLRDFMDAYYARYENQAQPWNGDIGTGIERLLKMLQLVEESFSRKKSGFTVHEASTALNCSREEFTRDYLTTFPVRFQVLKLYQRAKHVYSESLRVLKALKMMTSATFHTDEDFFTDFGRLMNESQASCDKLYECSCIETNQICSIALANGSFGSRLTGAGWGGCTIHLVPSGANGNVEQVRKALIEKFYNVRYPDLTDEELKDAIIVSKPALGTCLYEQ"}},
  "data": [
    {"variants_of": "B1", "conditions": "with gal3_yeast GAL3, P13045", "values": [
      {"variant": "E351K", "effect of a mutation on the interaction": "with no effect"}
    ]}
  ]
}
